# In patent US20240239915A1:
# What was measured:
# Assay in all cases: SPR (Biacore T200); receptor immobilized directly on CM5 chip, antibody as analyte at 4.7 µM
# [1] = target: Recombinant Human Fc gamma RIIA/CD32a (R167) Protein (R&D Systems), His-tagged (human) (UniProt P12318)
# [2] = target: Recombinant Human Fc gamma RIIIB/CD16b Protein (R&D Systems), His-tagged (human) (UniProt O75015)
# [3] = target: Recombinant Human Fc gamma RIIB/C (CD32b/c) Protein (R&D Systems), His-tagged (human) (UniProt P31994)
# [4] = target: Recombinant Human Fc gamma RIIIA/CD16a protein (R&D Systems), His-tagged (human) (UniProt P08637)
# Chain of Recombinant Human Fc gamma RIIIA/CD16a protein (R&D Systems), His-tagged (human) (P08637 other isoform, or with tags, fused parts or gaps): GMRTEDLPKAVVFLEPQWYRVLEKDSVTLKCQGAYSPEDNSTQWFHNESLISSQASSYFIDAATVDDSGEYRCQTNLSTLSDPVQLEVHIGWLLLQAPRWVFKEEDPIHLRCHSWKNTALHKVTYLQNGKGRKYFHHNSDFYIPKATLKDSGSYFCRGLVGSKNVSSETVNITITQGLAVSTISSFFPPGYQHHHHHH
# Chain of Recombinant Human Fc gamma RIIA/CD32a (R167) Protein (R&D Systems), His-tagged (human) (P12318 other isoform, or with tags, fused parts or gaps): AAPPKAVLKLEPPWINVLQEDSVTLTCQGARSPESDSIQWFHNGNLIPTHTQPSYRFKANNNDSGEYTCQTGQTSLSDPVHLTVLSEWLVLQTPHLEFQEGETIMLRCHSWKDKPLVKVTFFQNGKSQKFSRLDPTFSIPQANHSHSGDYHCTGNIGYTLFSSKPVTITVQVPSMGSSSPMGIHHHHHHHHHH
# Chain of Recombinant Human Fc gamma RIIB/C (CD32b/c) Protein (R&D Systems), His-tagged (human) (P31994 other isoform, or with tags, fused parts or gaps): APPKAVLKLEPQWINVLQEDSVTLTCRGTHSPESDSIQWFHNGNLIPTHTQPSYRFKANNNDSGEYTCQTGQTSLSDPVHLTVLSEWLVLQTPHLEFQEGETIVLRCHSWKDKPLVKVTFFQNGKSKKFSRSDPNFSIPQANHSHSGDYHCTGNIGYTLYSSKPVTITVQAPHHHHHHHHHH
# Chain of Recombinant Human Fc gamma RIIIB/CD16b Protein (R&D Systems), His-tagged (human) (O75015 other isoform, or with tags, fused parts or gaps): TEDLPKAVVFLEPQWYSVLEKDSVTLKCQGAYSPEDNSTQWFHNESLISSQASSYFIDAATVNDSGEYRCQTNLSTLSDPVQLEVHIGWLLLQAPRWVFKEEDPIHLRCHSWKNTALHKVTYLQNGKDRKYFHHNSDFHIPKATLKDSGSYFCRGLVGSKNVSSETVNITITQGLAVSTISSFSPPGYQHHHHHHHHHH
substance,measurement,setting,value
LALA-DG variant of the anti-CD70 antibody vorsetuzumab (IgG1),binding response (RU),[1],8.3 RU
LALA variant of the anti-CD70 antibody vorsetuzumab (IgG1),binding response (RU),[2],4.5 RU
same,binding response (RU),[3],18 RU
same,binding response (RU),[1],64 RU
same,binding response (RU),[4],100 RU
